# Test results from US20240197834A1, “PHARMACEUTICAL COMPOSITION FOR PREVENTING OR TREATING CHRONIC RENAL DISEASE INCLUDING GLUCAGON DERIVATIVE” (HANMI PHARM. CO., LTD., priority 2021, published 2024).
# Bridge positions count the residues as written; N and C are the ends. Square brackets hold non-standard residues; d marks the D form. Ends that are not written are not given here. Aib = CC(C)(N)C(=O)O
# Assay: pI of native glucagon and glucagon derivatives
# Assay type: physicochemical
# Procedure: Accordingly, as described in Table 1 below, a native glucagon and glucagon derivatives having equivalent activity thereto were first prepared. Referring to WO 2016/108586, WO 2017/003191, and WO 2018/004283, the glucagon derivatives were synthesized, and pl and in vitro activity thereof were measured.
row,Sequence,pl
1,HSQGTFTSDYSKYLDCDRAQDFVQWLMNT (glucagon derivative) [SEQ ID NO: 2],4.56
2,HSQGTFTSDYSKYLDCERAQDFVQWLMNT (glucagon derivative) [SEQ ID NO: 3],4.66
3,HSQGTFTSDYSKYLDSCDAQDFVQWLMNT (glucagon derivative) [SEQ ID NO: 4],4.13
4,HSQGTFTSDYSKYLDSCEADDFVQWLMNT (glucagon derivative) [SEQ ID NO: 6],4.03
5,HSQGTFTSDYSKYLDSCEAQDFVQWLMNT (glucagon derivative) [SEQ ID NO: 5],4.22
6,SQGTFTSDYSKYLDECRAKEFVQWLMNT (lactam 15-19) [SEQ ID NO: 32],4.78
7,WXQGTFTSDYSKCLDERRAKDFVQWLMNT (W[Aib]QGTFTSDYSKCLDERRAKDFVQWLMNT; lactam 16-20) [SEQ ID NO: 30],4.44
8,WXQGTFTSDYSKYCDERRAKEFVQWLMNT (W[Aib]QGTFTSDYSKYCDERRAKEFVQWLMNT; lactam 16-20) [SEQ ID NO: 34],6.21
9,WXQGTFTSDYSKYLDECRAKDFVQWLMNT (W[Aib]QGTFTSDYSKYLDECRAKDFVQWLMNT; lactam 16-20) [SEQ ID NO: 26],4.68
10,WXQGTFVSDYSKYLDECRAKDFVQWLMNT (W[Aib]QGTFVSDYSKYLDECRAKDFVQWLMNT; lactam 16-20) [SEQ ID NO: 28],4.68
11,YSQGTFTSDYSKYLDSCEADDFVQWLMNT (glucagon derivative) [SEQ ID NO: 7],3.71
12,YXQGTFCSDYSKYLDERRAKDFVQWLMNT (Y[Aib]QGTFCSDYSKYLDERRAKDFVQWLMNT; lactam 16-20) [SEQ ID NO: 41],6.03
13,YXQGTFCSDYSKYLDERRAKEFVQWLMNT (Y[Aib]QGTFCSDYSKYLDERRAKEFVQWLMNT; lactam 16-20) [SEQ ID NO: 38],6.15
14,YXQGTFCSDYSKYLDSRRAQDFVQWLMNT (Y[Aib]QGTFCSDYSKYLDSRRAQDFVQWLMNT) [SEQ ID NO: 42],6.03
15,YXQGTFTSDCSKYLDERRAKEFVQWLMNT (Y[Aib]QGTFTSDCSKYLDERRAKEFVQWLMNT; lactam 16-20) [SEQ ID NO: 36],6.21
16,YXQGTFTSDCSKYLDSRRAQDFVQWLMNT (Y[Aib]QGTFTSDCSKYLDSRRAQDFVQWLMNT) [SEQ ID NO: 43],6.03
17,YXQGTFTSDYSCYLDEKRAKEFVQWLMNT (Y[Aib]QGTFTSDYSCYLDEKRAKEFVQWLMNT) [SEQ ID NO: 45],4.78
18,YXQGTFTSDYSCYLDSRRAQDFVQWLMNT (Y[Aib]QGTFTSDYSCYLDSRRAQDFVQWLMNT) [SEQ ID NO: 13],4.43
19,YXQGTFTSDYSKCLDEKRAKEFVQWLMNT (Y[Aib]QGTFTSDYSKCLDEKRAKEFVQWLMNT; lactam 16-20) [SEQ ID NO: 24],6.21
20,YXQGTFTSDYSKCLDERRAKDFVQWLMNT (Y[Aib]QGTFTSDYSKCLDERRAKDFVQWLMNT; lactam 16-20) [SEQ ID NO: 29],6.15
21,YXQGTFTSDYSKYCDEKRAKEFVQWLMNT (Y[Aib]QGTFTSDYSKYCDEKRAKEFVQWLMNT; lactam 16-20) [SEQ ID NO: 23],6.20
22,YXQGTFTSDYSKYCDERRAKEFVQWLMNT (Y[Aib]QGTFTSDYSKYCDERRAKEFVQWLMNT; lactam 16-20) [SEQ ID NO: 35],6.2

row,Sequence,pl
1,YXQGTFTSDYSKYLCEKRAKEFVQWLMNT (Y[Aib]QGTFTSDYSKYLCEKRAKEFVQWLMNT; lactam 16-20) [SEQ ID NO: 19],8.12
2,YXQGTFTSDYSKYLCEKRAQDFVVWLMNT (Y[Aib]QGTFTSDYSKYLCEKRAQDFVVWLMNT) [SEQ ID NO: 15],6.11
3,YXQGTFTSDYSKYLDCKRAKEFVQWLMNT (Y[Aib]QGTFTSDYSKYLDCKRAKEFVQWLMNT; lactam 17-21) [SEQ ID NO: 31],8.12
4,YXQGTFTSDYSKYLDCKRAKEFVQWLMNT [SEQ ID NO: 14] (Y[Aib]QGTFTSDYSKYLDCKRAKEFVQWLMNT),8.12
5,YXQGTFTSDYSKYLDCRRAQVFVQWLMRT (Y[Aib]QGTFTSDYSKYLDCRRAQVFVQWLMRT) [SEQ ID NO: 16],9.11
6,YXQGTFTSDYSKYLDCVRAQDFVQWLMRT (Y[Aib]QGTFTSDYSKYLDCVRAQDFVQWLMRT) [SEQ ID NO: 17],6.03
7,YXQGTFTSDYSKYLDECRAKEFVQWLMNT (Y[Aib]QGTFTSDYSKYLDECRAKEFVQWLMNT; lactam 16-20) [SEQ ID NO: 20],4.78
8,YXQGTFTSDYSKYLDEKCAKEFVQWLMNT [SEQ ID NO: 11] (Y[Aib]QGTFTSDYSKYLDEKCAKEFVQWLMNT),4.78
9,YXQGTFTSDYSKYLDEKCAKEFVQWLMNT [SEQ ID NO: 21] (Y[Aib]QGTFTSDYSKYLDEKCAKEFVQWLMNT; lactam 16-20),4.78
10,YXQGTFTSDYSKYLDEKRAKCFVQWLMNT (Y[Aib]QGTFTSDYSKYLDEKRAKCFVQWLMNT; lactam 16-20) [SEQ ID NO: 25],8.12
11,YXQGTFTSDYSKYLDEKRAKEFVQWLMNTC (Y[Aib]QGTFTSDYSKYLDEKRAKEFVQWLMNTC; lactam 16-20) [SEQ ID NO: 12],6.20
12,YXQGTFTSDYSKYLDEKRCKEFVQWLMNT (Y[Aib]QGTFTSDYSKYLDEKRCKEFVQWLMNT; lactam 16-20) [SEQ ID NO: 22],6.20
13,YXQGTFTSDYSKYLDERRAKEFVQWLMNTC (Y[Aib]QGTFTSDYSKYLDERRAKEFVQWLMNTC; lactam 16-20) [SEQ ID NO: 37],6.21
14,YXQGTFTSDYSKYLDSCDADDFVVWLINT (Y[Aib]QGTFTSDYSKYLDSCDADDFVVWLINT) [SEQ ID NO: 10],3.66
15,YXQGTFTSDYSKYLDSCDAQDFVQWLINT (Y[Aib]QGTFTSDYSKYLDSCDAQDFVQWLINT) [SEQ ID NO: 8],3.77
16,YXQGTFTSDYSKYLDSCDAQDFVVWLINT (Y[Aib]QGTFTSDYSKYLDSCDAQDFVVWLINT) [SEQ ID NO: 9],3.77
17,YXQGTFTSDYSKYLDSRRACDFRLWLMNT (Y[Aib]QGTFTSDYSKYLDSRRACDFRLWLMNT) [SEQ ID NO: 18],8.15
18,YXQGTFTSDYSKYLDSRRAQDFVQWLMNT (X non-natural residue; glucagon derivative; (2) Xaa is aminoisobutyric acid (Aib)) [SEQ ID NO: 33],6.04
19,YXQGTFTSDYSKYLDSRRAQDFVQWLMNTC (glucagon derivative; (2) Xaa is aminoisobutyric acid (Aib)) [SEQ ID NO: 44],6.21
20,YXQGTFVSDCSKYLDERRAKDFVQWLMNT (Y[Aib]QGTFVSDCSKYLDERRAKDFVQWLMNT; lactam 16-20) [SEQ ID NO: 39],6.15
21,YXQGTFVSDYSKYLDECRAKDFVQWLMNT (Y[Aib]QGTFVSDYSKYLDECRAKDFVQWLMNT; lactam 16-20) [SEQ ID NO: 27],4.68
22,YXQGTFVSDYSKYLDERRAKDFVQWLMNTC (Y[Aib]QGTFVSDYSKYLDERRAKDFVQWLMNTC; lactam 16-20) [SEQ ID NO: 40],6.15
